Positions count from the first letter of the chain named. Names and notes keep the numbering of the source. Values belong to the binder of their own block, whether it stands above or below them.
Columns and labels:
[1] = biological target: T1, Recombinant Human DLL4 (R&D Systems Cat#1506-D4/CF) (human, UniProt Q9NR61 27-524); experiment: Multispot ECL
T1 construct: bought recombinant protein; also called rHuman DLL4; delta-like protein 4

[2] = biological target: T2, Recombinant Human DLL4 (delta-like protein 4) (human, UniProt Q9NR61 27-524); experiment: ECL (MSD) binding assay, Fab on immobilised recombinant human DLL4
T2 construct: Bought recombinant protein; also called rHuman DLL4

[3] = biological target: T3, rHuman ErbB2/Fc Chimera, CF (R&D Systems Cat#1129-ER) (human, UniProt P04626 23-652); experiment: ECL (MSD) multispot binding assay, antigen spotted on plate, 20 nM Fab;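 further: purified Fab incubated 1 h at 20 °C on antigen-spotted plate, bound Fab revealed with TAG detection antibody, ECL read, antigen signal divided by same-well blank, ratio ≥4 counted as hit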
T3 construct: Bought reagent; also called human epidermal growth factor 2 receptor; Fc part of the bought chimera not given

[4] = biological target: T4, rHuman EGF R/Fc Chimera, CF (R&D Systems Cat#344-ER) (human, UniProt P00533 25-645); experiment: as above
T4 construct: Bought reagent; also called epidermal growth factor receptor; Fc part of the bought chimera not given

[5] = biological target: T5, rHuman HGF R/c-MET/Fc Chimera, CF (R&D Systems Cat#358-MT/CF) (human, UniProt P08581 25-932); experiment: as above
T5 construct: Bought reagent; also called HGF R/Fc; hepatocyte growth factor receptor; Fc part of the bought chimera not given
T5 sequence (P08581 25-932, change not shown): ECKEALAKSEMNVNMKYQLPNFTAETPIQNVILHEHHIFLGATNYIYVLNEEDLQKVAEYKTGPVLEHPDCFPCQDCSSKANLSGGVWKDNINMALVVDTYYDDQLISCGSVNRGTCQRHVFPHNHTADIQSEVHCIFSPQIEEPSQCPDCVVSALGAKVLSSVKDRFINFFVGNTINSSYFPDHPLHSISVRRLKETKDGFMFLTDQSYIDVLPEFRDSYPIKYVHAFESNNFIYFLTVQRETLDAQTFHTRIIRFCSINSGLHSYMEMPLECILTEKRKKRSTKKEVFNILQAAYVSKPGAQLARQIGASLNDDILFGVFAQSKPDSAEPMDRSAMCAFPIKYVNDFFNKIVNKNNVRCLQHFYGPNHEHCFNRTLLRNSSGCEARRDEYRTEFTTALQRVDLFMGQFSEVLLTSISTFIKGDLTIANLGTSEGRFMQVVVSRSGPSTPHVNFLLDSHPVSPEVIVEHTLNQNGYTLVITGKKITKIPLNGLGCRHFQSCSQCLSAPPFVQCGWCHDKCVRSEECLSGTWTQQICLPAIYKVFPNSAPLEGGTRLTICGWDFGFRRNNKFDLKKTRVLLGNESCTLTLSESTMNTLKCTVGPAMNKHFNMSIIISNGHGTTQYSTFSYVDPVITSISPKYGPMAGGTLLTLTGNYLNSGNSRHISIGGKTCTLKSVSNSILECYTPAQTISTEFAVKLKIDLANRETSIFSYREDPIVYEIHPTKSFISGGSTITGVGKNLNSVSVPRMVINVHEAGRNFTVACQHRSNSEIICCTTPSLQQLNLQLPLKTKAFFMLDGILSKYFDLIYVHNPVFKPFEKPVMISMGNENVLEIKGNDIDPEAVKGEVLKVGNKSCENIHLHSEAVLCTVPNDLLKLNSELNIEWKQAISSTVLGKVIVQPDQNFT

[6] = biological target: T6, rHuman Notch-1/Fc Chimera, CF (R&D Systems Cat#3647-TK) (human, UniProt P46531 19-526); experiment: as above
T6 construct: Bought reagent; Fc part of the bought chimera not given

[7] = biological target: T7, rHuman CD44/Fc Chimera, CF (R&D Systems Cat#3660-CD) (human, UniProt P16070 21-220); experiment: as above
T7 construct: Bought reagent; Fc part of the bought chimera not given

[8] = biological target: T8, rHuman IGF-1 sR, CF (R&D Systems Cat#391-GR) (human, UniProt P08069 31-932); experiment: as above
T8 construct: Bought soluble receptor; also called insulin-like growth factor-1 soluble receptor

[9] = biological target: T9, rHuman P-Cadherin/Fc Chimera, CF (R&D Systems Cat#861-PC) (human, UniProt P22223 108-654); experiment: as above
T9 construct: Bought reagent; Fc part of the bought chimera not given

[10] = biological target: T10, rHuman Erythropoietin R/Fc Chimera, CF (R&D Systems Cat#963-ER) (human, UniProt P19235 25-250); experiment: as above
T10 construct: Bought reagent; also called EPO R; EPO R/Fc; Fc part of the bought chimera not given
T10 sequence (looked up): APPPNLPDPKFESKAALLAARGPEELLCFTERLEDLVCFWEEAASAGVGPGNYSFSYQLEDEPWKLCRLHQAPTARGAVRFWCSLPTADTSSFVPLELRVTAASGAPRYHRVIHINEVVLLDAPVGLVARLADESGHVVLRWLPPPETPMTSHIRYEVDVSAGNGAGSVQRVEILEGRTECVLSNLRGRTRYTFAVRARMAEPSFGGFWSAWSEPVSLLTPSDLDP

[11] = biological target: T11, Recombinant Human DLL4 (R&D Systems Cat#1506-D4/CF) (human, UniProt Q9NR61 27-524); experiment: as above
T11 construct: Bought recombinant protein; also called delta-like protein 4; rHuman DLL4

[12] = biological target: T1, Recombinant Human DLL4 (R&D Systems …); experiment: 96-well plate ECL

B1: Fab VH1-46_IGHD6-6*01_IGHJ1*01 & A27_IGKJ1*01 (Fab, V domains shown)
VH: QVQLVQSGAEVKKPGASVKVSCKASGYTFTSYYMHWVRQAPGQGLEWMGIINPSGGSTSYAQKFQGRVTMTRDTSTSTVYMELSSLRSEDTAVYYCAREEYSSSSAEYFQHWGQGTLVTVSS
VL: not shown
notes: Fab; also called non-Hit
binding result [1]: no binding

B2: Fab VH1-46_IGHD6-6*01_IGHJ1*01 & A27_IGKJ1*01 (Fab, V domains shown)
VH: B1 VH
VL: not shown
notes: Germline Fab from the combinatorial library, with CH1 (plus His6 and Flag tags) and a kappa constant region from the expression plasmids
binding result [2]: no binding

B5: Fab VH3-23_IGHD2-21*01>3_IGHJ6*01 H100E/S108P/Y113G Y114P & V2-13_IGLJ2*01 (Fab, V domains shown)
VH: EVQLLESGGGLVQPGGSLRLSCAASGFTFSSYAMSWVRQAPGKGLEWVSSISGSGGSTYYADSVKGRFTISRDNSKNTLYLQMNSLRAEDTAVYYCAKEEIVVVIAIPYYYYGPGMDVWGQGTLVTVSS
VL: SSELTQDPAVSVALGQTVRITCQGDSLRSYYASWYQQKPGQAPVLVIYGKNNRPSGIPDRFSGSSSGNTASLTITGAQAEDEADYYCNSRDSSGNHLVVFGGGTKLTVL
notes: Tested as Fab made in E. coli (VH-CH1 with His and Flag tags; lambda CL); also called EPG Y114P
ECL multispot value [3]: 1.4
ECL multispot value [4]: 1.2
ECL multispot value [5]: 2.7
ECL multispot value [6]: 1.4
ECL multispot value [7]: 1.1
ECL multispot value [8]: 0.9
ECL multispot value [9]: 1.3
ECL multispot value [10]: 2.3
ECL multispot value [11]: 1.1

B6: Fab VH3-23_IGHD2-21*01>3_IGHJ6*01 H100E/S108P/Y113G Y114T & V2-13_IGLJ2*01 (Fab, V domains shown)
VH: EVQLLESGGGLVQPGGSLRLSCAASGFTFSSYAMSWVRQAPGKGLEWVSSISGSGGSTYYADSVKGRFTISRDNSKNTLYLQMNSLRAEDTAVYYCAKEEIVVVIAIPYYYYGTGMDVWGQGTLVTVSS
VL: B5 VL
notes: Tested as Fab made in E. coli (VH-CH1 with His and Flag tags; lambda CL); also called EPG Y114T
ECL multispot value [3]: 1.4
ECL multispot value [4]: 1.3
ECL multispot value [5]: 1.8
ECL multispot value [6]: 1.8
ECL multispot value [7]: 1.1
ECL multispot value [8]: 1.1
ECL multispot value [9]: 1.7
ECL multispot value [10]: 2
ECL multispot value [11]: 1.6

B7: Fab VH5-51_IGHD5-18*01>3_IGHJ4*01 G100K & V3-4_IGLJ1*01 (Fab, V domains shown)
VH: EVQLVQSGAEVKKPGESLKISCKGSGYSFTSYWIGWVRQMPGKGLEWMGIIYPGDSDTRYSPSFQGQVTISADKSISTAYLQWSSLKASDTAMYYCARRKYSYGYDYFDYWGQGTLVTVSS
VL: QTVVTQEPSFSVSPGGTVTLTCGLSSGSVSTSYYPSWYQQTPGQAPRTLIYSTNTRSSGVPDRFSGSILGNKAALTITGAQADDESDYYCVLYMGSGISYVFGTGTKVTVL
notes: Fab
fold ECL signal against the parent Fab [12]: ~2 fold

Continued, values first:

binding result [1]: no binding
B3: Fab VH1-46_IGHD6-6*01_IGHJ1*01 & L25_IGKJ1*01 (Fab, V domains shown)
VH: B1 VH
VL: EIVMTQSPATLSLSPGERATLSCRASQSVSSSYLSWYQQKPGQAPRLLIYGASTRATGIPARFSGSGSGTDFTLTISSLQPEDFAVYYCQQDYNLPPWTFGQGTKVEIKR
notes: Fab; also called non-Hit

binding result [2]: no binding
B4: Fab VH1-46_IGHD6-6*01_IGHJ1*01 & L25_IGKJ1*01 (Fab, V domains shown)
VH: B1 VH
VL: B3 VL
notes: as for B2

fold ECL signal against the parent Fab [12]: ~2 fold
B8: Fab VH5-51_IGHD5-18*01>3_IGHJ4*01 G104T & V3-4_IGLJ1*01 (Fab, V domains shown)
VH: B7 VH with K100G, G104T
VL: B7 VL
notes: Fab
